Measurements from IntAct's records for PubMed 21252223.

B1: Swi5-dependent recombination DNA repair protein 1 homolog (Homo sapiens), Q86XK3 (parent)
chain: MAEGEKNQDFTFKMESPSDSAVVLPSTPQASANPSSPYTNSSRKQPMSATLRERLRKTRFSFNSSYNVVKRLKVESEENDQTFSEKPASSTEENCLEFQESFKHIDSEFEENTNLKNTLKNLNVCESQSLDSGSCSALQNEFVSEKLPKQRLNAEKAKLVKQVQEKEDLLRRLKLVKMYRSKNDLSQLQLLIKKWRSCSQLLLYELQSAVSEENKKLSLTQLIDHYGLDDKLLHYNRSEEEFIDV
partner: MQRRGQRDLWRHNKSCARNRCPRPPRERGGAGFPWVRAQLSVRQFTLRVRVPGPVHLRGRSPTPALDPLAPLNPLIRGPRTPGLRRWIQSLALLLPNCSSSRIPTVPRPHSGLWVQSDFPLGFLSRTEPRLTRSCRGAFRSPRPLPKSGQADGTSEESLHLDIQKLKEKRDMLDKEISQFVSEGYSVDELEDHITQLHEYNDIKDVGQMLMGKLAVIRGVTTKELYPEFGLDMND

Variants of: B1
Details: with swi5_human SWI5, Q1ZZU3

Row | Variant | effect of a mutation on the interaction
1 | L173P | with no effect
